T1: Ube2G1 (Rattus norvegicus, UniProt P62255)
T1 construct: made in house; host or cells: in vitro translation in wheat germ (similar results in reticulocyte lysate)
T1 sequence (P62255 1-170): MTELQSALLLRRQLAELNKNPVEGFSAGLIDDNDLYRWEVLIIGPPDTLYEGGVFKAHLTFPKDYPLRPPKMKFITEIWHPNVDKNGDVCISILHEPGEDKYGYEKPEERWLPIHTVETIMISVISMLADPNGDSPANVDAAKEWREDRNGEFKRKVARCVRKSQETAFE

T2: Ubc7p (Saccharomyces cerevisiae, UniProt Q02159)
T2 construct: made in house; host or cells: in vitro translation in wheat germ from pCDNA-DEST47
T2 sequence (Q02159 1-165): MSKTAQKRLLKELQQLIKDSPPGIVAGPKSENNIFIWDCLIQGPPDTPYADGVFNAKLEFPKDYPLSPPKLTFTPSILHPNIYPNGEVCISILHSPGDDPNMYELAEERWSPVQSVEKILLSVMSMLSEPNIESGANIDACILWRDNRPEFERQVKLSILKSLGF

T3: Ube2G2/MmUbc7 (Mus musculus, UniProt P60605)
T3 construct: made in house; host or cells: coupled in vitro transcription/translation in rabbit reticulocyte lysate or wheat germ
T3 sequence (P60605 1-165): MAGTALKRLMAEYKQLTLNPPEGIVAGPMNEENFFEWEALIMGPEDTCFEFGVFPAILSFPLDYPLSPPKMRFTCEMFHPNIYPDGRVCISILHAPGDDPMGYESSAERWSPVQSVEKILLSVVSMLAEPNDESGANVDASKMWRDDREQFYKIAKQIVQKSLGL

T4: endogenous Ube2G2 (Homo sapiens, UniProt P60604)
T4 construct: endogenous in cells; host or cells: HEK 293T
T4 sequence (P60604 1-165): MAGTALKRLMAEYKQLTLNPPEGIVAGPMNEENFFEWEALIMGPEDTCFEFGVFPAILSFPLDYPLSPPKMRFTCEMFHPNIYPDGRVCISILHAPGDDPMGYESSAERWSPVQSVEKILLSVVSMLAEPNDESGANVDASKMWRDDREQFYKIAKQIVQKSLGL

T5: His6-Ube2G2 (Mus musculus, UniProt P60605)
T5 construct: made in house; host or cells: bacteria (pExp17, Gateway)
T5 sequence (P60605 1-165): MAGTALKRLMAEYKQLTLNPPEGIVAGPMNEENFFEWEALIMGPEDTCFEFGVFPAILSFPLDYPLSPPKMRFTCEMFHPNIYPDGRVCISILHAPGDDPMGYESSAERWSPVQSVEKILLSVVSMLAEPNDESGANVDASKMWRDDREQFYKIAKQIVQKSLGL

B1: Cue1pC: GST fusion of the cytoplasmic domain of yeast Cue1p (protein)
chain: QSNQHPSAQRLSATGVNAHGRPQGSTQNALRRTGRVNGGHPVTTQMVETVQNLAPNLHPEQIRYSLENTGSVEETVERYLRGDEFSFPPGFEPSRAPMGANAAVDNNAAGGGEFNDPRKKNMICAENLLDKFHVDLNEDMSNLSFKDLDIEERKRLLVWQARKNLETKLQSDKDLQSLLT
modifications: left off: a dimerising Fc or GST
notes: GST fusion of the cytoplasmic domain of yeast Cue1p
B2: E2-m2: GST-gp78 fusion with residues 579-584 (QRMLVQ) mutated to AAAGGG; in b274 the same mutation in a GFP fusion (protein)
chain: MPLLFLERFPWPSLRTYTGLSGLALLGTIISAYRALSQPEAGPGEPDQLTASLQPEPPAPARPSAGGPRARDVAQYLLSDSLFVWVLVNTACCVLMLVAKLIQCIVFGPLRVSERQHLKDKFWNFIFYKFIFIFGVLNVQTVEEVVMWCLWFAGLVFLHLMVQLCKDRFEYLSFSPTTPMSSHGRVLSLLVAMLLSCCGLAAVCSITGYTHGMHTLAFMAAESLLVTVRTAHVILRYVIHLWDLNHEGTWEGKGTYVYYTDFVMELTLLSLDLMHHIHMLLFGNIWLSMASLVIFMQLRYLFHEVQRRIRRHKNYLRVVGNMEARFAVATPEELAVNNDDCAICWDSMQAARKLPCGHLFHNSCLRSWLEQDTSCPTCRMSLNIADNNRVREEHQGENLDENLVPVAAAEGRPRLNQHNHFFHFDGSRIASWLPSFSVEVMHTTNILGITQASNSQLNAMAHQIQEMFPQVPYHLVLQDLQLTRSVEITTDNILEGRIQVPFPTQRSDSIRPALNSPVERPSSDQEEGETSAQTERVPLDLSPRLEETLDFGEVEVEPSEVEDFEARGSRFSKSADERAAAGGGRKDELLQQARKRFLNKSSEDDAASESFLPLEGASSDPVTLRRRMLAAAAERRLQKQQTS

What was measured:
Ube2G1 = molecular target: T1, Ube2G1; experiment: GST pull-down binding of in vitro translated Ube2G1; settings: GST fusion pull-down
Source text: Plasmids encoding the following have been described: rat Ubc7 (Ube2g1) (Lin and Wing, 1999); UbcH5B (Jensen et al., 1995); Myc-MmUbc7, C89S Myc-MmUbc7, HA-CD3-δ and 2B4 TCR-α (Tiwari and Weissman, 2001); GST-gp78 309 to 643, 508 or 428 and full length gp78 and the double RING finger mutation gp78Rf-m in pCINeo (Fang et al., 2001); and GST-UBA-Cbl-b (Davies et al., 2004). Plasmids encoding Ubc7p and His6-MmUbc7 were generated by PCR and subcloned into pCDNA-DEST47 or pExp17 respectively using Gateway (Invitrogen, Carlsbad, Calif.). GST-AO7 (92 to 259) was subcloned from full length A07 (Lorick et al., 1999). GST-gp78 beginning at 429, 503, 522, 542, 561, 574, 587, or 596 and ending at 643 GST-gp78 beginning at 435 and ending at 507 and GST-Cue1p 24-203 (Cue1pC) were generated by PCR and cloning into pGEX4T-1 (Amersham Biosciences, Piscataway, N.J.). N-terminal Flag-tagged constructs were created by PCR and cloning into pFlag-CMV6 (Sigma). N-terminal GFP-tagged constructs were generated by subcloning from pFLAG-CMV6 to pEGFP-C1 (BD Biosciences, Palo Alto, Calif.). […]
GST fusions were purified from E. Coli. Binding was carried out using equi-molar amount of fusion proteins measured by Commassie blue staining. […] After transfer to Hybond-P (Amersham Biosciences) binding was assessed with anti-His6 followed by Enhanced Chemiluminescence ECL; Pierce). […]

Ubc7p = molecular target: T2, Ubc7p; experiment: GST pull-down binding of in vitro translated Ubc7p; parameters: species or system yeast; settings: GST fusion pull-down
Procedure: (§1) GST fusions were purified from E. Coli. Binding was carried out using equi-molar amount of fusion proteins measured by Commassie blue staining. Generally, 20 picomoles/sample were used. In vitro translated E2 was generated by coupled transcription and translation using 35S methionine in either wheat germ or rabbit reticulocyte lysate. Binding assays using in vitro translated E2 was carried out by incubating GST protein pre-bound to Glutathione-sepharose 4B with […] of ^35S-methionine labeled E2 in binding buffer (25 mM Tris-HCl, pH 7.4; 50 mM NaCl, 5 mM DTT; and 0.5% NP-40) overnight at 4° C. Beads were washed with binding buffer and resolved by SDS-PAGE under reducing conditions. Analysis was by Storm PhosphoImager (Applied Biosystems, Foster City, Calif.). Direct binding assays used wild type His6-MmUbc7 (His6-Ube2G2) and Glutathione-sepharose bound GST fusions. Beadbound GST protein was incubated with 100 ng purified His6-MmUbc7 in binding buffer and washed and eluted as above. After transfer to Hybond-P (Amersham Biosciences) binding was assessed with anti-His6 followed by Enhanced Chemiluminescence ECL; Pierce). Ubiquitin binding studies were performed with binding and washing as above using 1 μg K48 tetra-ubiquitin produced as described (Piotrowski et al., 1997). Detection was by anti-ubiquitin immunoblotting. […]

[1] = molecular target: T6, lysine 48-linked (K48) tetra-ubiquitin (Homo sapiens, UniProt P0CG47); experiment: Tetra-ubiquitin binding to GST fusions; settings: anti-ubiquitin immunoblot
T6 construct: 1 μg K48 tetra-ubiquitin produced as described (Piotrowski et al., 1997); made in house
Procedure: (§2) GST fusions were purified from E. Coli. Binding was carried out using equi-molar amount of fusion proteins measured by Commassie blue staining. Generally, 20 picomoles/sample were used. In vitro translated E2 was generated by coupled transcription and translation using 35S methionine in either wheat germ or rabbit reticulocyte lysate. Binding assays using in vitro translated E2 was carried out by incubating GST protein pre-bound to Glutathione-sepharose 4B with […] of ^35S-methionine labeled E2 in binding buffer (25 mM Tris-HCl, pH 7.4; 50 mM NaCl, 5 mM DTT; and 0.5% NP-40) overnight at 4° C. Beads were washed with binding buffer and resolved by SDS-PAGE under reducing conditions. Analysis was by Storm PhosphoImager (Applied Biosystems, Foster City, Calif.). Direct binding assays used wild type His6-MmUbc7 (His6-Ube2G2) and Glutathione-sepharose bound GST fusions. Beadbound GST protein was incubated with 100 ng purified His6-MmUbc7 in binding buffer and washed and eluted as above. After transfer to Hybond-P (Amersham Biosciences) binding was assessed with anti-His6 followed by Enhanced Chemiluminescence ECL; Pierce). Ubiquitin binding studies were performed with binding and washing as above using 1 μg K48 tetra-ubiquitin produced as described (Piotrowski et al., 1997). Detection was by anti-ubiquitin immunoblotting.

Ube2G2/MmUbc7 = molecular target: T3, Ube2G2/MmUbc7; experiment: GST pull-down binding of in vitro translated 35S-Met Ube2G2/MmUbc7; parameters: species or system human; settings: GST fusion pull-down; 35S-Met labeled E2
Procedure: GST fusions were purified from E. Coli. Binding was carried out using equi-molar amount of fusion proteins measured by Commassie blue staining. Generally, 20 picomoles/sample were used. In vitro translated E2 was generated by coupled transcription and translation using 35S methionine in either wheat germ or rabbit reticulocyte lysate. […] Beads were washed with binding buffer and resolved by SDS-PAGE under reducing conditions. Analysis was by Storm PhosphoImager (Applied Biosystems, Foster City, Calif.). Direct binding assays used wild type His6-MmUbc7 (His6-Ube2G2) and Glutathione-sepharose bound GST fusions. Beadbound GST protein was incubated with 100 ng purified His6-MmUbc7 in binding buffer and washed and eluted as above. After transfer to Hybond-P (Amersham Biosciences) binding was assessed with anti-His6 followed by Enhanced Chemiluminescence ECL; Pierce).
The E2 enzymes were in vitro translated using wheat germ.
GST fusion proteins encoding the regions indicated in FIGS. 3A-3C were evaluated for the ability to bind to Ube2G2/MmUbc7 that had been in vitro transcribed and translated in rabbit reticulocyte lysate. gp78C represents the entire C-terminal cytoplasmic domain of gp78 (amino acid residues 309-643 of SEQ ID NO:2).

UbcH5B = molecular target: T7, UbcH5B (Homo sapiens, UniProt P62837); experiment: GST pull-down binding of in vitro translated UbcH5B; settings: GST fusion pull-down
T7 construct: made in house; host or cells: in vitro translation in wheat germ
T7 sequence (P62837 whole entry, the tested form may be a part): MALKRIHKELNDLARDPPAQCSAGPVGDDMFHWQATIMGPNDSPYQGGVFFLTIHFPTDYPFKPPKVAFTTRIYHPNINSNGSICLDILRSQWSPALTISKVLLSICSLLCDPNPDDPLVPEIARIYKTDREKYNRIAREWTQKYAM
Procedure: as §1

ERAD substrate CD3-δ = experiment: Cycloheximide chase of CD3-δ in co-transfected cells; format: cell-based; settings: co-transfection with HA-CD3-δ
Procedure: (§3) Transfections of HT1080, NIH 3T3 and HEK 293T cells were carried out ˜24 hr after plating using Polyfect (Qiagen, Valencia, Calif.) and cells harvested after ˜48 hr. J558 cells were transfected by electroporation using Bio-rad GENE pulser II at settings of 250 v, 950uF. Vector without insert was used to equalize total plasmid. In most experiments 0.15 μg of pEGFP-C1 served as an internal control. For experiments not involving immunoprecipitation, 6×10^5 cells were plated in 6 well plates and cell lysis was with Mammalian Protein Extraction Reagent (Pierce). For immunoprecipitation, 2.4×10^6 cells were seeded in 100 mm dishes and cells were lysed in RIPA buffer (1×PBS, 1% Nonidet P40. 0.5% sodium deoxycholate, 0.1% SDS). Lysis buffers were supplemented with Protease Inhibitor Cocktail (Sigma) and 10 mM iodoacetamide. Supernatants were analyzed after a 10,000×g centrifugation using standard techniques for immunoprecipitation, SDS-PAGE, immunoblotting and ECL. Treatment of cells with MG132 (Sigma) was at 50 μM for eight hr. Cycloheximnide was used at 50 μg/ml. All cells were collected at the end of the six hr chase.
(§4) To evaluate protein turnover in more detail, cycloheximide chase experiments were performed (FIGS. 20C and 20D). […] In agreement with FIG. 20A, CD3-δ degradation was accelerated with wild type gp78 (FIGS. 20C and 20D middle panels; effects of full-length forms of gp78 on CD3-δ from FIGS. 20C and 20D are quantified in FIG. 20E).

endogenous Ube2G2 = molecular target: T4, endogenous Ube2G2; experiment: Co-immunoprecipitation of endogenous Ube2G2 with GFP fusions in HEK 293T cells; format: cell-based; settings: anti-GFP IP
Procedure: Transfections of HT1080, NIH 3T3 and HEK 293T cells were carried out ˜24 hr after plating using Polyfect (Qiagen, Valencia, Calif.) and cells harvested after ˜48 hr. J558 cells were transfected by electroporation using Bio-rad GENE pulser II at settings of 250 v, 950uF. Vector without insert was used to equalize total plasmid. In most experiments 0.15 μg of pEGFP-C1 served as an internal control. For experiments not involving immunoprecipitation, 6×10^5 cells were plated in 6 well plates and cell lysis was with Mammalian Protein Extraction Reagent (Pierce). […] Supernatants were analyzed after a 10,000×g centrifugation using standard techniques for immunoprecipitation, SDS-PAGE, immunoblotting and ECL. […]
FIG. 6 depicts the specific binding of gp78 residues 574-611 (of SEQ ID NO:2) to endogenous Ube2G2 in HEK 293T cells. Cells were transfected with plasmids encoding GFP fusions of the indicated regions of gp78, and co-immunoprecipitation was evaluated. […]
To determine the specificity of E2 binding in cells, GFP fusions encompassing the E2 binding region were expressed in cells, and co-immunoprecipitation of endogenous E2 was tested using antibodies raised specifically against Ube2g1, Ube2G2 and UbcH5B (FIG. 19B). […] In contrast, and consistent with the in vitro binding data in FIG. 18, no association with endogenous UbcH5B or Ube2g1 was detected (FIG. 19B third and fourth panels, left). […]

gp78 = experiment: Cycloheximide chase of gp78 in transfected cells; format: cell-based; settings: compared to wild type gp78
Procedure: as §3, §4

His6-Ube2G2 = molecular target: T5, His6-Ube2G2; experiment: Direct binding of bacterially expressed His6-Ube2G2 to GST fusions; settings: purified E2, anti-His6 immunoblot
Procedure: as §2

Molecule	binding to in vitro translated Ube2G1 (Ube2G1)	binding to in vitro translated yeast Ubc7p (Ubc7p)	binding of K48 tetra-ubiquitin [1]	binding to in vitro translated Ube2G2/MmUbc7 (Ube2G2/MmUbc7)	binding to in vitro translated UbcH5B (UbcH5B)	effect on CD3-δ degradation (ERAD substrate CD3-δ)	co-immunoprecipitation of endogenous Ube2G2 (endogenous Ube2G2)	gp78 stability (gp78)	direct binding of His6-Ube2G2 (His6-Ube2G2)
B1	no binding	bound	no binding	bound	bound to neither				
B2				loss of binding		minimal stabilization of CD3-δ	abrogated binding	stabilized gp78	disrupted binding

From patent publication US8420776B2, “Ube2G2 binding domain in the ubiquitin ligase gp78 and methods of use thereof” (The United States of America, as Represented by the …, priority 2004, dated 2013)
